Test results published in patent US12397037B2, “Methods and compositions for immunomodulation” (CHILDREN'S MEDICAL CENTER CORPORATION, priority 2014, dated 2025).

Assays:
RhoA = RhoA activity, rhotekin pull-down, U87MG cells; type: cell-based, human; conditions: SEMA3F 640 ng/ml, 10 minutes
Method: FIG. 30A depicts U87MG cells treated with SEMA3F (640 ng/ml), rapamycin (10 nM) or Torin 1 (10 nM) for 30 minutes. Subsequently, cells were stained with Alexa Fluor 488 phalloidin and Hoechst 33342 to identify F-actin cytoskeleton stress fibers and cellular nuclei, respectively. […] The scale bar indicates 20 μm. FIG. 30B depicts U87MG cells transiently transfected with a pcDNA3.1 empty vector or with a wild type (WT) mTOR plasmid and after 18 hours treated with SEMA3F (640 ng/ml) for 30 minutes. Cells were stained as described above in FIG. 30A. Representative cellular staining is shown; bar graph represents the number of fibers/cell (mean±SD) from 3 independent experiments. FIG. 30C depicts U87MG cells transfected with control siRNA or with raptor- or rictor-specific siRNAs (20 nM). […] The number of stress fibers was evaluated in 3 independent experiments and shown as the mean±SD. […] After 18 hours, the cells were treated with SEMA3F (640 ng/ml) for 10 minutes and RhoA activity was evaluated. FIG. 30E depicts U87MG cells transfected with control siRNA or with raptor- or rictor-specific siRNAs (20 nM), were treated with SEMA3F (640 ng/ml) for 10 minutes and RhoA activity was analyzed. […]
RhoA activity (39) was measured using the rhotekin pulldown assay in U87MG cells transfected with the mTOR overexpression construct (FIG. 30D). […]

Jurkat T cells = assay: Western blot of pAkt (S473) in NRP-2-expressing Jurkat T cells; type: cell-based, human; conditions: 30 min
Method: FIG. 20 depicts the results of Western blots of NRP-2-expressing Jurkat T cells treated with increasing concentrations of SEMA3F for 30 min. Expression of pAkt (S473) was evaluated by Western blot.
In addition, as illustrated in FIG. 20 NRP-2-expressing Jurkat T cells were treated with increasing concentrations of SEMA3F for 30 min. and expression of pAkt (S473) was evaluated by Western blot. Expression is reduced following treatment with high concentrations of SEMA3F (>600 ng/ml)
Western blotting: Proteins within each sample were separated by SDS-PAGE and transferred to nitrocellulose membranes. The membranes were blocked with 4% skimmed milk in TBS-T (0.1% Tween 20 in tris-buffered saline [TBS]) for 30 minutes, followed by incubation with the primary antibody. After washing with TBS-T, membranes were incubated with the appropriate horseradish peroxidase-conjugated secondary antibody, and immunoreactivity was detected by using ECL detection reagents.

U87MG cells = U87MG cells within 24 hours; reference 6; cited from earlier work
[1] = tested on: C57BL/6 recipients of fully mismatched BALB/c cardiac allografts; assay: Fully MHC mismatched cardiac allograft survival (BALB/c into C57BL/6); type: in vivo, mice; conditions: for mean graft survival: untreated controls 6.5 days
Excerpt: FIG. 2 depicts graft survival curves. Cardiac allografts (Balb/c) were transplanted into fully MHC mismatched recipients (C57BL/6). Unmanipulated recipients reject these allografts within 7-8 days.
FIG. 3 depicts graft survival curves. Cardiac allografts (Balb/c) were transplanted into fully MHC mismatched recipients (C57BL/6). Unmanipulated recipients reject these allografts within 7-8 days.
FIG. 4 depicts graft survival curves of C56BL6 recipient mice after transplantation with Balb/C donor hearts.
Described herein is the treatment of C57BL/6 recipients of fully mismatched BALB/c cardiac allografts with Sema3F.
Ba1b/C donor hearts were transplanted into C56BL6 mice.

B1: SEMA3F: Human recombinant full-length His-Myc-tagged SEMA3F, secreted by transfected 293T cells and purified; class 3 semaphorin, NRP-2 ligand (protein, listed as Homo sapiens)
chain: MLVAGLLLWASLLTGAWPSFPTQDHLPATPRVRLSFKELKATGTAHFFNFLLNTTDYRILLKDEDHDRMYVGSKDYVLSLDLHDINREPLIIHWAASPQRIEECVLSGKDVNGECGNFVRLIQPWNRTHLYVCGTGAYNPMCTYVNRGRRAQATPWTQTQAVRGRGSRATDGALRPMPTAPRQDYIFYLEPERLESGKGKCPYDPKLDTASALINEELYAGVYIDFMGTDAAIFRTLGKQTAMRTDQYNSRWLNDPSFIHAELIPDSAERNDDKLYFFFRERSAEAPQSPAVYARIGRICLNDDGGHCCLVNKWSTFLKARLVCSVPGEDGIETHFDELQDVFVQQTQDVRNPVIYAVFTSSGSVFRGSAVCVYSMADIRMVFNGPFAHKEGPNYQWMPFSGKMPYPRPGTCPGGTFTPSMKSTKDYPDEVINFMRSHPLMYQAVYPLQRRPLVVRTGAPYRLTTIAVDQVDAADGRYEVLFLGTDRGTVQKVIVLPKDDQELEELMLEEVEVFKDPAPVKTMTISSKRQQLYVASAVGVTHLSLHRCQAYGAACADCCLARDPYCAWDGQACSRYTASSKRRSRRQDVRHGNPIRQCRGFNSNANKNAVESVQYGVAGSAAFLECQPRSPQATVKWLFQRDPGDRRREIRAEDRFLRTEQGLLLRALQLSDRGLYSCTATENNFKHVVTRVQLHVLGRDAVHAALFPPLSMSAPPPPGAGPPTPPYQELAQLLAQPEVGLIHQYCQGYWRHVPPSPREAPGAPRSPEPQDQKKPRNRRHHPPDT
modifications: His-Myc tag
notes: Human recombinant full-length His-Myc-tagged SEMA3F, secreted by transfected 293T cells and purified; class 3 semaphorin, NRP-2 ligand
- RhoA activity partially rescued (by) (RhoA; U87MG cells overexpressing mTOR): 55%
- suppression of RhoA activity (RhoA; control pcDNA3.1-transfected U87MG cells): 88%
- concentration of SEMA3F at which expression of pAkt (S473) is reduced (Jurkat T cells): > 600 ng/ml
- apoptosis (U87MG cells): does not induce apoptosis
- rejection in NRP-2KO mice ([1]; NRP-2KO recipients): can inhibit rejection
- mean graft survival ([1]; Sema3F administered via adenovirus, n=4 mice): > 22 days
- mean graft survival ([1]; Sema3F administered via i.p. injection, n=16 mice): 23.4 days
- CD3, CD4, CD8 and Treg populations by FACS ([1]; day 5 post transplantation, mice of FIG. 2 (adenovirus)): no differences are observed
